Measurements taken from the supplement of paper PMC9112550, “Optimization of the antimicrobial peptide Bac7 by deep mutational scanning” (BMC Biology, 2022).

System: Escherichia coli TOP10
Assay: shrunken log2 fold change of peptide-encoding DNA abundance (4.5 h post-induction vs induction); higher = less antimicrobial activity (less host growth inhibition)
Conditions: time post-induction: 4.5 h; library: site-saturation at positions 5, 18, 19, 20
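Note: peptides expressed intracellularly from a pBAD plasmid library in pooled LB shake-flask culture, induced with 0.3% L-arabinose, DNA abundance read by NGS, three biological replicates, DESeq2 with apeglm shrinkage.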

Sequence | shrunken log2 fold change
RRIRLRPPRLPRPRPRPQYFPRP | -0.158
RRIRKRPPRLPRPRPRPKNCPRP | 0.0646
RRIRTRPPRLPRPRPRPVVLPRP | -0.149
RRIRCRPPRLPRPRPRPTCIPRP | -0.307
RRIRCRPPRLPRPRPRPQACPRP | 0.00494
RRIRMRPPRLPRPRPRPIKDPRP | -0.165
RRIRQRPPRLPRPRPRPYVQPRP | -0.00748
RRIRTRPPRLPRPRPRPQYNPRP | -0.856
RRIRCRPPRLPRPRPRPNSTPRP | -0.76
RRIRERPPRLPRPRPRPWIPPRP | 0.0136
RRIRRRPPRLPRPRPRPPKSPRP | 0.37
RRIRCRPPRLPRPRPRPSTPPRP | -0.382
RRIRARPPRLPRPRPRPFYEPRP | -0.125
RRIRFRPPRLPRPRPRPHLMPRP | -0.149
RRIRWRPPRLPRPRPRPSNGPRP | -0.19
RRIRSRPPRLPRPRPRPWNAPRP | -0.443
RRIRERPPRLPRPRPRPKFPPRP | 0.0509
RRIRRRPPRLPRPRPRPQDIPRP | -1.16
RRIRCRPPRLPRPRPRPTDTPRP | -0.438
RRIRYRPPRLPRPRPRPQFIPRP | -1.19
RRIRQRPPRLPRPRPRPQWYPRP | -0.0123
RRIRARPPRLPRPRPRPVKYPRP | -0.166
RRIRWRPPRLPRPRPRPCKVPRP | -0.0816
RRIRTRPPRLPRPRPRPIDAPRP | -0.0859
RRIRSRPPRLPRPRPRPSCEPRP | -0.0887

Sequence | shrunken log2 fold change
RRIRYRPPRLPRPRPRPKQIPRP | -0.456
RRIRHRPPRLPRPRPRPYNVPRP | -0.0512
RRIRVRPPRLPRPRPRPNLQPRP | 0.0671
RRIRFRPPRLPRPRPRPVWFPRP | -0.182
RRIRVRPPRLPRPRPRPAHDPRP | 0.113
RRIRGRPPRLPRPRPRPSGTPRP | 0.913
RRIRVRPPRLPRPRPRPDICPRP | 0.221
RRIRSRPPRLPRPRPRPTESPRP | 0.0325
RRIRLRPPRLPRPRPRPQLVPRP | 0.144
RRIRKRPPRLPRPRPRPFFWPRP | 1.09
RRIRHRPPRLPRPRPRPFQAPRP | -0.312
RRIRQRPPRLPRPRPRPYNKPRP | -0.403
RRIRLRPPRLPRPRPRPGNFPRP | -0.122
RRIRSRPPRLPRPRPRPASCPRP | 0.131
RRIRGRPPRLPRPRPRPTIHPRP | 0.434
RRIRKRPPRLPRPRPRPAATPRP | 0.838
RRIRPRPPRLPRPRPRPVTQPRP | 0.2
RRIRARPPRLPRPRPRPTKDPRP | 0.144
RRIRIRPPRLPRPRPRPAYSPRP | -0.534
RRIRNRPPRLPRPRPRPEKSPRP | 0.31
RRIRHRPPRLPRPRPRPIQIPRP | -0.139
RRIRCRPPRLPRPRPRPPEFPRP | 0.0967
RRIRYRPPRLPRPRPRPGWWPRP | 0.316
RRIRMRPPRLPRPRPRPPDQPRP | 2.01
RRIRVRPPRLPRPRPRPIAYPRP | -0.184

Sequence | shrunken log2 fold change
RRIRERPPRLPRPRPRPCYNPRP | -0.137
RRIRCRPPRLPRPRPRPIWDPRP | 0.166
RRIRGRPPRLPRPRPRPPNSPRP | 0.301
RRIRNRPPRLPRPRPRPHINPRP | -1.02
RRIRGRPPRLPRPRPRPYIKPRP | -0.164
RRIRTRPPRLPRPRPRPPIYPRP | -0.305
RRIRSRPPRLPRPRPRPMRHPRP | 3.44
RRIRARPPRLPRPRPRPIANPRP | 0.103
RRIRERPPRLPRPRPRPFCDPRP | 0.211
RRIRMRPPRLPRPRPRPPWYPRP | 0.117
RRIRVRPPRLPRPRPRPVNEPRP | 0.0839
RRIRARPPRLPRPRPRPNEKPRP | -0.0878
RRIRFRPPRLPRPRPRPYEFPRP | -0.245
RRIRPRPPRLPRPRPRPYLCPRP | -0.504
RRIRQRPPRLPRPRPRPNNNPRP | -0.825
RRIRARPPRLPRPRPRPPDKPRP | 0.572
RRIRYRPPRLPRPRPRPNWLPRP | -0.226
RRIRTRPPRLPRPRPRPIGFPRP | -0.0989
RRIRQRPPRLPRPRPRPCPKPRP | 4.03
RRIRHRPPRLPRPRPRPTRHPRP | 0.36
RRIRGRPPRLPRPRPRPQGYPRP | 0.045
RRIRGRPPRLPRPRPRPIGWPRP | 1.18
RRIRHRPPRLPRPRPRPLSRPRP | 0.172
RRIRCRPPRLPRPRPRPFAVPRP | -0.169
RRIRGRPPRLPRPRPRPRQNPRP | 0.768

Sequence | shrunken log2 fold change
RRIRLRPPRLPRPRPRPLDYPRP | -0.157
RRIRDRPPRLPRPRPRPITFPRP | -0.822
RRIRERPPRLPRPRPRPVQGPRP | 0.166
RRIRERPPRLPRPRPRPDFMPRP | 0.0144
RRIRCRPPRLPRPRPRPQHWPRP | 0.102
RRIRRRPPRLPRPRPRPLYMPRP | -0.15
RRIRYRPPRLPRPRPRPAFQPRP | -0.00804
RRIRFRPPRLPRPRPRPNQPPRP | -0.136
RRIRLRPPRLPRPRPRPRFTPRP | 0.0165
RRIRSRPPRLPRPRPRPRDPPRP | 0.623
RRIRDRPPRLPRPRPRPKRDPRP | 0.145
RRIRQRPPRLPRPRPRPFVWPRP | 0.049
RRIRQRPPRLPRPRPRPHRDPRP | -0.322
RRIRERPPRLPRPRPRPAYLPRP | -0.296
RRIRQRPPRLPRPRPRPALQPRP | 0.145
RRIRKRPPRLPRPRPRPYHGPRP | -0.000893
RRIRKRPPRLPRPRPRPNHRPRP | -0.334
RRIRTRPPRLPRPRPRPPFEPRP | 0.156
RRIRGRPPRLPRPRPRPWFHPRP | -0.121
RRIRRRPPRLPRPRPRPCIFPRP | -0.0526
RRIRPRPPRLPRPRPRPRPMPRP | 0.513
RRIRTRPPRLPRPRPRPFHAPRP | -0.0296
RRIRERPPRLPRPRPRPCNNPRP | -0.768
RRIRYRPPRLPRPRPRPNIWPRP | -0.302
RRIRPRPPRLPRPRPRPIYWPRP | 0.00563

Sequence | shrunken log2 fold change
RRIRGRPPRLPRPRPRPIDNPRP | 0.186
RRIRWRPPRLPRPRPRPTKWPRP | -0.126
RRIRSRPPRLPRPRPRPPHTPRP | 0.159
RRIRERPPRLPRPRPRPVLLPRP | -0.388
RRIRVRPPRLPRPRPRPHGTPRP | -0.408
RRIRFRPPRLPRPRPRPNYSPRP | -0.8
RRIRHRPPRLPRPRPRPEPPPRP | 0.545
RRIRGRPPRLPRPRPRPRAHPRP | 0.857
RRIRPRPPRLPRPRPRPREWPRP | 0.151
RRIRTRPPRLPRPRPRPREPPRP | 1.21
RRIRCRPPRLPRPRPRPQVNPRP | -0.246
RRIRERPPRLPRPRPRPKNVPRP | 0.0204
RRIRDRPPRLPRPRPRPSDCPRP | -0.482
RRIRTRPPRLPRPRPRPMQLPRP | -0.191
RRIRNRPPRLPRPRPRPIEAPRP | 0.0895
RRIRTRPPRLPRPRPRPEYAPRP | -0.00931
RRIRGRPPRLPRPRPRPPTPPRP | 1.22
RRIRMRPPRLPRPRPRPCRMPRP | -0.0205
RRIRERPPRLPRPRPRPTMCPRP | 0.292
RRIRMRPPRLPRPRPRPSDWPRP | 0.998
RRIRTRPPRLPRPRPRPYPCPRP | -0.245
RRIRRRPPRLPRPRPRPWYFPRP | -0.204
RRIRGRPPRLPRPRPRPVEAPRP | 0.997
RRIRWRPPRLPRPRPRPEKHPRP | 0.39
RRIRGRPPRLPRPRPRPGKLPRP | 0.461

Sequence | shrunken log2 fold change
RRIRCRPPRLPRPRPRPDKSPRP | -1.38
RRIRPRPPRLPRPRPRPESNPRP | 0.0165
RRIRSRPPRLPRPRPRPKIGPRP | -0.0115
RRIRERPPRLPRPRPRPYDSPRP | -0.0594
RRIRLRPPRLPRPRPRPQIFPRP | -0.165
RRIRRRPPRLPRPRPRPQFTPRP | -0.0485
RRIRERPPRLPRPRPRPTWYPRP | -0.217
RRIRPRPPRLPRPRPRPQTPPRP | 0.313
RRIRFRPPRLPRPRPRPPFYPRP | -0.462
RRIRQRPPRLPRPRPRPDVSPRP | 0.0409
RRIRMRPPRLPRPRPRPAPKPRP | 0.675
RRIRSRPPRLPRPRPRPCVVPRP | -0.266
RRIRPRPPRLPRPRPRPMSVPRP | 0.0754
RRIRMRPPRLPRPRPRPLDFPRP | -0.129
RRIRVRPPRLPRPRPRPYDKPRP | -1.05
RRIRLRPPRLPRPRPRPNVAPRP | 0.0405
RRIRFRPPRLPRPRPRPLDSPRP | -0.0455
RRIRLRPPRLPRPRPRPSPGPRP | 0.0266
RRIRSRPPRLPRPRPRPPFYPRP | -0.154
RRIRTRPPRLPRPRPRPRMNPRP | -0.133
RRIRFRPPRLPRPRPRPTTGPRP | -0.0819
RRIRERPPRLPRPRPRPHCKPRP | -1.07
RRIRSRPPRLPRPRPRPKARPRP | 0.0932
RRIRVRPPRLPRPRPRPLHNPRP | -0.143
RRIRSRPPRLPRPRPRPKRVPRP | 0.0219
